Laboratory results published in the supplement of paper PMC10724198.
± gives the standard deviation of the averaged measurements.

Tested on: Saccharomyces cerevisiae
Assay: protein stability index of tFT-peptide fusion in wild type (PSI (0-1 scale)); higher = more stable (slower turnover)
Conditions: genetic background: wild type
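Throughout, for protein stability index of tFT-peptide fusion (C-terminal peptide): PSI is a weighted mean of sequencing reads over stability bins, variants kept only with over 10 reads, mCherry proximal and sfGFP distal, peptide attached via GGGS linker.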
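Throughout, for protein stability index of tFT-peptide fusion in deletion strain of DOA10: PSI per variant is the weighted mean of its sequencing read distribution over the sorted stability bins, counting only variants with over 10 reads summed across bins.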
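Throughout, for protein stability index of tFT-peptide fusion in wild type: PSI derived as read-weighted mean over the 8 sorting bins, only variants exceeding 10 total reads kept, mCherry placed adjacent to the peptide and sfGFP distal.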

First: AITLPMCPLLLR
Second: CLVSLPILLFFR
The protein stability index of the first is higher: 0.207 for the first, 0.0566 for the second.

First: GLYMCHVGCWFR
Second: GLYMCLVGCWFR
The protein stability index of the first is higher: 0.279 for the first, 0.254 for the second.

Going from GLYMCRVGCWFR to GLYMCSVGCKFR, the protein stability index rises from 0.291 to 0.619.

First: GLYMCSVGCVFR
Second: GLYMCSVGCWER
The protein stability index of the first is lower: 0.561 for the first, 0.632 for the second.

Compared with GLYMCSVGCWFRH, GLYMCSVGCWFRL is lower in protein stability index: 0.271 for the first, 0.114 for the second.

Going from GLYMCSVGCWTR to GLYMCSVGLWFR, the protein stability index falls from 0.555 to 0.184.

First: GLYMCSVMCWFR
Second: GLYMCSVNCWFR
The protein stability index of the first is lower: 0.263 for the first, 0.487 for the second.

First: GLYMCSVQCWFR
Second: GLYMCVVGCWFR
The protein stability index of the first is higher: 0.354 for the first, 0.217 for the second.

First: GLYMCWVGCWFR
Second: GLYMFSVGCWFR
The protein stability index of the first is lower: 0.182 for the first, 0.234 for the second.

First: GLYMNSVGCWFR
Second: GVTRLDAIYFRI
The protein stability index of the first is higher: 0.351 for the first, 0.229 for the second.

First: KITLPMCPLLLR
Second: MLYMCSVGCWFR
The protein stability index of the first is lower: 0.253 for the first, 0.328 for the second.

Compared with NLYMCSVGCWFR, PLYMCSVGCWFR is higher in protein stability index: 0.414 for the first, 0.462 for the second.

Going from RALRVLLPLYFR to RLLRVLLPLYFR, the protein stability index rises from 0.353 to 0.407.

Going from RLYMCSVGCWFR to RQTRLDAIYFRI, the protein stability index rises from 0.382 to 0.505.

First: RSKRVLLPLYFR
Second: RSLKVLLPLYFR
The protein stability index of the first is higher: 0.362 for the first, 0.27 for the second.

Compared with RSLMVLLPLYFR, RSLRFLLPLYFR is lower in protein stability index: 0.34 for the first, 0.322 for the second.

First: RSLRLLLPLYFR
Second: RSLRNLLPLYFR
The protein stability index of the first is lower: 0.289 for the first, 0.465 for the second.

Going from RSLRSLLPLYFR to RSLRVLAPLYFR, the protein stability index falls from 0.469 to 0.352.

First: RSLRVLLCLYFR
Second: RSLRVLLILYFR
The protein stability index of the first is higher: 0.306 for the first, 0.23 for the second.

First: RSLRVLLMLYFR
Second: RSLRVLLPLHFR
The protein stability index of the first is lower: 0.218 for the first, 0.517 for the second.

First: RSLRVLLPLSFR
Second: RSLRVLLPLYFE
The protein stability index of the first is lower: 0.401 for the first, 0.524 for the second.

First: RSLRVLLPLYFF
Second: RSLRVLLPLYFN
The protein stability index of the first is higher: 0.364 for the first, 0.107 for the second.

First: RSLRVLLPLYFRG
Second: RSLRVLLPLYTR
The protein stability index of the first is lower: 0.324 for the first, 0.547 for the second.

First: RSLRVLVPLYFR
Second: RSLRVMLPLYFR
The protein stability index of the first is higher: 0.218 for the first, 0.217 for the second.

First: RSLWVLLPLYFR
Second: RSMRVLLPLYFR
The protein stability index of the first is higher: 0.284 for the first, 0.257 for the second.

Going from RSTRLDAIYFRI to RSWRVLLPLYFR, the protein stability index falls from 0.53 to 0.297.

First: RVMRLDAIYFRI
Second: RVTILDAIYFRI
The protein stability index of the first is lower: 0.302 for the first, 0.545 for the second.

Compared with RVTKLDAIYFRI, RVTRLDAIGFRI is higher in protein stability index: 0.483 for the first, 0.69 for the second.

Compared with RVTRLDAIRFRI, RVTRLDAIYFDI is higher in protein stability index: 0.616 for the first, 0.7 for the second.

Compared with RVTRLDAIYFRIH, RVTRLDAIYFRIY is higher in protein stability index: 0.087 for the first, 0.123 for the second.

First: RVTRLDAIYMRI
Second: RVTRLDAIYWRI
The protein stability index of the first is lower: 0.382 for the first, 0.385 for the second.

Going from RVTRLDEIYFRI to RVTRLDYIYFRI, the protein stability index falls from 0.685 to 0.179.

Compared with RVTRLLAIYFRI, RVTRLRAIYFRI is higher in protein stability index: 0.155 for the first, 0.159 for the second.

First: RVTRQDAIYFRI
Second: RVTTLDAIYFRI
The protein stability index of the first is higher: 0.553 for the first, 0.524 for the second.

Compared with RVTWLDAIYFRI, RVWRLDAIYFRI is lower in protein stability index: 0.323 for the first, 0.246 for the second.

Tested on: Saccharomyces cerevisiae
Assay: protein stability index of tFT-peptide fusion in deletion strain of DOA10 (PSI (0-1 scale)); higher = more stable (slower turnover)
Conditions: not given
Method: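 MPS profiling in S. cerevisiae of two library types built from selected 12-aa C-degron peptides (IN1, IN2, LN1, LN3, VN2, R1-R5, W1-W3, Atg1 and Rpa12 C-termini): saturation mutagenesis libraries and C-terminal +1 capping libraries (13 aa). Each peptide is fused to the C-terminus of a sfGFP-mCherry timer, after a GGGS linker. Cells are FACS-sorted into 8 mCherry/sfGFP bins and sequenced. PSI runs from 0 (unstable) to 1 (stable), measured once in wild type and in the das1Δ or doa10Δ background.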

Compared with AITLPMCPLLLR, CLVSLPILLFFR is lower in protein stability index: 0.649 for the first, 0.586 for the second.

Compared with GLYMCHVGCWFR, GLYMCLVGCWFR is lower in protein stability index: 0.629 for the first, 0.406 for the second.

First: GLYMCRVGCWFR
Second: GLYMCSVGCKFR
The protein stability index of the first is lower: 0.638 for the first, 0.654 for the second.

Compared with GLYMCSVGCVFR, GLYMCSVGCWER is higher in protein stability index: 0.627 for the first, 0.656 for the second.

First: GLYMCSVGCWFRH
Second: GLYMCSVGCWFRL
The protein stability index of the first is lower: 0.616 for the first, 0.624 for the second.

Compared with GLYMCSVGCWTR, GLYMCSVGLWFR is lower in protein stability index: 0.601 for the first, 0.534 for the second.

Compared with GLYMCSVMCWFR, GLYMCSVNCWFR is higher in protein stability index: 0.383 for the first, 0.566 for the second.

First: GLYMCSVQCWFR
Second: GLYMCVVGCWFR
The protein stability index of the first is higher: 0.416 for the first, 0.354 for the second.

First: GLYMCWVGCWFR
Second: GLYMFSVGCWFR
The protein stability index of the first is lower: 0.387 for the first, 0.524 for the second.

Going from GLYMNSVGCWFR to GVTRLDAIYFRI, the protein stability index falls from 0.704 to 0.69.

Compared with KITLPMCPLLLR, MLYMCSVGCWFR is lower in protein stability index: 0.653 for the first, 0.604 for the second.

Compared with NLYMCSVGCWFR, PLYMCSVGCWFR is lower in protein stability index: 0.657 for the first, 0.643 for the second.

Compared with RALRVLLPLYFR, RLLRVLLPLYFR is higher in protein stability index: 0.669 for the first, 0.673 for the second.

First: RLYMCSVGCWFR
Second: RQTRLDAIYFRI
The protein stability index of the first is lower: 0.644 for the first, 0.703 for the second.

Compared with RSKRVLLPLYFR, RSLKVLLPLYFR is lower in protein stability index: 0.675 for the first, 0.666 for the second.

Compared with RSLMVLLPLYFR, RSLRFLLPLYFR is lower in protein stability index: 0.637 for the first, 0.632 for the second.

First: RSLRLLLPLYFR
Second: RSLRNLLPLYFR
The protein stability index of the first is lower: 0.656 for the first, 0.687 for the second.

First: RSLRSLLPLYFR
Second: RSLRVLAPLYFR
The protein stability index of the first is higher: 0.702 for the first, 0.687 for the second.

Going from RSLRVLLCLYFR to RSLRVLLILYFR, the protein stability index falls from 0.471 to 0.38.

First: RSLRVLLMLYFR
Second: RSLRVLLPLHFR
The protein stability index of the first is lower: 0.468 for the first, 0.714 for the second.

Compared with RSLRVLLPLSFR, RSLRVLLPLYFE is lower in protein stability index: 0.673 for the first, 0.64 for the second.

Going from RSLRVLLPLYFF to RSLRVLLPLYFN, the protein stability index falls from 0.502 to 0.165.

First: RSLRVLLPLYFRG
Second: RSLRVLLPLYTR
The protein stability index of the first is higher: 0.694 for the first, 0.648 for the second.

First: RSLRVLVPLYFR
Second: RSLRVMLPLYFR
The protein stability index of the first is higher: 0.657 for the first, 0.625 for the second.

Going from RSLWVLLPLYFR to RSMRVLLPLYFR, the protein stability index rises from 0.605 to 0.653.

First: RSTRLDAIYFRI
Second: RSWRVLLPLYFR
The protein stability index of the first is lower: 0.678 for the first, 0.692 for the second.

Compared with RVMRLDAIYFRI, RVTILDAIYFRI is higher in protein stability index: 0.656 for the first, 0.663 for the second.

First: RVTKLDAIYFRI
Second: RVTRLDAIGFRI
The protein stability index of the first is lower: 0.667 for the first, 0.696 for the second.

Going from RVTRLDAIRFRI to RVTRLDAIYFDI, the protein stability index rises from 0.652 to 0.734.

Going from RVTRLDAIYFRIH to RVTRLDAIYFRIY, the protein stability index rises from 0.143 to 0.242.

First: RVTRLDAIYMRI
Second: RVTRLDAIYWRI
The protein stability index of the first is higher: 0.71 for the first, 0.684 for the second.

First: RVTRLDEIYFRI
Second: RVTRLDYIYFRI
The protein stability index of the first is higher: 0.731 for the first, 0.538 for the second.

Going from RVTRLLAIYFRI to RVTRLRAIYFRI, the protein stability index rises from 0.287 to 0.314.

Going from RVTRQDAIYFRI to RVTTLDAIYFRI, the protein stability index falls from 0.698 to 0.661.

Going from RVTWLDAIYFRI to RVWRLDAIYFRI, the protein stability index falls from 0.656 to 0.543.

Tested on: Saccharomyces cerevisiae
Assay: protein stability index of tFT-peptide fusion (C-terminal peptide) (PSI (0-1 scale)); higher = more stable (slower turnover)
Conditions: genetic background: wild type; temperature: 30 C

Compared with AITLPMCPLLLR, CLVSLPILLFFR is lower in protein stability index: 0.256 ± 0.018 for the first, 0.0658 ± 0.021 for the second.

Tested on: Saccharomyces cerevisiae
Assay: as above
Conditions: genetic background: cdc34-1; temperature: 37 C
Method: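 MPS profiling in S. cerevisiae of the tFT-X12 degron library: putative degron peptides plus stable controls, 12 aa, fused to the C-terminus of a sfGFP-mCherry timer. Cells are FACS-sorted into 8 mCherry/sfGFP bins and deep-sequenced. PSI runs from 0 (unstable) to 1 (stable). Backgrounds are wild type, das1Δ and doa10Δ at 30 °C, and wild type, das1Δ, cdc34-1 and cdc53-1 at 37 °C; 2-3 technical replicates each.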

AITLPMCPLLLR and CLVSLPILLFFR are within error of each other in protein stability index: 0.0636 ± 0.0091 for the first, 0.0435 ± 0.013 for the second.

Same assay, conditions: genetic background: cdc53-1; temperature: 37 C

AITLPMCPLLLR and CLVSLPILLFFR are within error of each other in protein stability index: 0.047 ± 0.0088 for the first, 0.0381 ± 0.0045 for the second.

Same assay, conditions: genetic background: das1 deletion; temperature: 30 C

First: AITLPMCPLLLR
Second: CLVSLPILLFFR
The protein stability index of the first is higher: 0.165 ± 0.017 for the first, 0.0501 ± 0.019 for the second.

Same assay, conditions: genetic background: das1 deletion; temperature: 37 C

Going from AITLPMCPLLLR to CLVSLPILLFFR, the protein stability index falls from 0.204 ± 0.014 to 0.0652 ± 0.014.

Same assay, conditions: genetic background: doa10 deletion; temperature: 30 C

First: AITLPMCPLLLR
Second: CLVSLPILLFFR
The protein stability index of the first is higher: 0.6226 ± 0.0028 for the first, 0.545 ± 0.023 for the second.

Same assay, conditions: genetic background: wild type; temperature: 30 C

Compared with AITLPMCPLLLR, CLVSLPILLFFR is lower in protein stability index: 0.16 ± 0.027 for the first, 0.0298 ± 0.0067 for the second.

Same assay, conditions: genetic background: wild type; temperature: 37 C

Going from AITLPMCPLLLR to CLVSLPILLFFR, the protein stability index falls from 0.157 ± 0.0086 to 0.0556 ± 0.015.
